Measurements reported in US20040077031.

Key:
[1] = molecular target: T1, MAS (methionine-alanine-serine) trimeric peptide
T1 chain: MAS

[2] = molecular target: T2, MGAQFSKT (MARCKS protein) octameric peptide
T2 chain: MGAQFSKT

MGK peptide = molecular target: T3, MGK peptide
T3 chain: MGK

MGKV peptide = molecular target: T4, MGKV peptide
T4 chain: MGKV

MGKVK peptide = molecular target: T5, MGKVK peptide
T5 chain: MGKVK

MGKVKV peptide = molecular target: T6, MGKVKV peptide
T6 chain: MGKVKV

MGKVKVG (GADPH) peptide = molecular target: T7, MGKVKVG (GADPH) peptide
T7 chain: MGKVKVG

MGKVKVGVN peptide = molecular target: T8, MGKVKVGVN peptide
T8 chain: MGKVKVGVN

MGKVKVGVNG peptide = molecular target: T9, MGKVKVGVNG peptide
T9 chain: MGKVKVGVNG

MGKVKVGVNGF peptide = molecular target: T10, MGKVKVGVNGF peptide
T10 chain: MGKVKVGVNGF

[3] = molecular target: T11, MGNAAAAK (PKC a) octameric peptide
T11 chain: MGNAAAAK

[4] = molecular target: T12, MGNLKSVA (eNOS) octameric peptide
T12 chain: MGNLKSVA

[5] = molecular target: T13, MGSSKSKP (Src p60) octameric peptide
T13 chain: MGSSKSKP

B1: recombinant human methionine aminopeptidase type 2 (MetAP2) with N-terminal histidine tag (protein)
chain: MAGVEEVAASGSHLNGDLDPDDREEGAASTAEEAAKKKRRKKKKSKGPSAAGEQEPDKESGASVDEVARQLERSALEDKERDEDDEDGDGDGDGATGKKKKKKKKKRGPKVQTDPPSVPICDLYPNGVFPKGQECEYPPTQDGRTAAWRTTSEEKKALDQASEEIWNDFREAAEAHRQVRKYVMSWIKPGMTMIEICEKLEDCSRKLIKENGLNAGLAFPTGCSLNNCAAHYTPNAGDTTVLQYDDICKIDFGTHISGRIIDCAFTVTFNPKYDTLLKAVKDATNTGIKCAGIDVRLCDVGEAIQEVMESYEVEIDGKTYQVKPIRNLNGHSIGQYRIHAGKTVPIVKGGEATRMEEGEVYAIETFGSTGKGVVHDDMECSHYMKNFDVGHVPIRLPRTKHLLNVINENFGTLAFCRRWLDRLGESKYLMALKNLCDLGIVDPYPPLCDIKGSYTAQFEHTILLRPTCKEVVSRGDDY
[1]
  Km: 212 µM
  baseline activity (turnover, no added metal): 0.19 µM/min turnover of MAS at 60 nM MetAP2
  enzymatic cleavage of peptide substrate: showed enzymatic activity in cleaving a tripeptide MAS substrate
  kcat: 2.54 s⁻¹
  kcat/Km: 0.72
[2]
  Km: 224 µM
  baseline activity (turnover, no added metal): 0.12 µM/min turnover of MGAQFSKT at 30 nM MetAP2
  kcat: 4.87 s⁻¹
  kcat/Km: 1.3
MGK peptide
  Km: 758 µM
  kcat: 3.32 s⁻¹
  kcat/Km: 0.3
MGKV peptide
  Km: 624 µM
  kcat: 6.7 s⁻¹
  kcat/Km: 0.6
MGKVK peptide
  Km: 188 µM
  kcat: 10.4 s⁻¹
  kcat/Km: 3.3
MGKVKV peptide
  Km: 149 µM
  kcat: 8.53 s⁻¹
  kcat/Km: 3.4
MGKVKVG (GADPH) peptide
  Km: 215 µM
  kcat: 9.56 s⁻¹
  kcat/Km: 2.7
MGKVKVGVN peptide
  Km: 205 µM
  kcat: 10.2 s⁻¹
  kcat/Km: 3
MGKVKVGVNG peptide
  Km: 164 µM
  kcat: 10.2 s⁻¹
  kcat/Km: 3.7
MGKVKVGVNGF peptide
  Km: 131 µM
  kcat: 9.43 s⁻¹
  kcat/Km: 4.3
[3]
  Km: 260 µM
  kcat: 3.78 s⁻¹
  kcat/Km: 0.9
[4]
  Km: 208 µM
  kcat: 4.87 s⁻¹
  kcat/Km: 1.4
[5]
  Km: 233 µM
  kcat: 3.94 s⁻¹
  kcat/Km: 1
